# According to the Human Domainome abundance scans (Beltran et al. 2025):
# ± gives the uncertainty stated by the source.
# B1: Steroid hormone receptor ERR2, residues 100 to 176; numbered along this chain, O95718 (parent)
# chain: KRLCLVCGDIASGYHYGVASCEACKAFFKRTIQGNIEYSCPATNECEITKRRRKSCQACRFMKCLKVGMLKEGVRLD
# Variants of: B1
# Assay: abundance fitness (aPCA) (normalised: wild type 0, dead -1); higher = more abundant; growth selection in yeast, the domain comes from the species named
# Conditions: Homo sapiens
row,Variant,abundance fitness
1,KRLCLVCGDIASGYKYGVASCEACKAFFKRTIQGNIEYSCPATNECEITKRRRKSCQACRFMKCLKVGMLKEGVRLD [H15K],-0.363 ± 0.099
2,KRLCLVCGDIASGYLYGVASCEACKAFFKRTIQGNIEYSCPATNECEITKRRRKSCQACRFMKCLKVGMLKEGVRLD [H15L],-0.223 ± 0.062
3,KRLCLVCGDIASGYMYGVASCEACKAFFKRTIQGNIEYSCPATNECEITKRRRKSCQACRFMKCLKVGMLKEGVRLD [H15M],-0.325 ± 0.089
4,KRLCLVCGDIASGYNYGVASCEACKAFFKRTIQGNIEYSCPATNECEITKRRRKSCQACRFMKCLKVGMLKEGVRLD [H15N],-0.143 ± 0.077
5,KRLCLVCGDIASGYPYGVASCEACKAFFKRTIQGNIEYSCPATNECEITKRRRKSCQACRFMKCLKVGMLKEGVRLD [H15P],-0.32 ± 0.092
6,KRLCLVCGDIASGYQYGVASCEACKAFFKRTIQGNIEYSCPATNECEITKRRRKSCQACRFMKCLKVGMLKEGVRLD [H15Q],-0.097 ± 0.13
7,KRLCLVCGDIASGYTYGVASCEACKAFFKRTIQGNIEYSCPATNECEITKRRRKSCQACRFMKCLKVGMLKEGVRLD [H15T],-0.356 ± 0.094
8,KRLCLVCGDIASGYVYGVASCEACKAFFKRTIQGNIEYSCPATNECEITKRRRKSCQACRFMKCLKVGMLKEGVRLD [H15V],-0.369 ± 0.071
9,KRLCLVCGDIASGYWYGVASCEACKAFFKRTIQGNIEYSCPATNECEITKRRRKSCQACRFMKCLKVGMLKEGVRLD [H15W],-0.1 ± 0.066
10,KRLCLVCGDIASGYYYGVASCEACKAFFKRTIQGNIEYSCPATNECEITKRRRKSCQACRFMKCLKVGMLKEGVRLD [H15Y],-0.085 ± 0.14
11,KRLCLVCGDIASGYHCGVASCEACKAFFKRTIQGNIEYSCPATNECEITKRRRKSCQACRFMKCLKVGMLKEGVRLD [Y16C],-0.213 ± 0.077
12,KRLCLVCGDIASGYHDGVASCEACKAFFKRTIQGNIEYSCPATNECEITKRRRKSCQACRFMKCLKVGMLKEGVRLD [Y16D],0.008 ± 0.054
13,KRLCLVCGDIASGYHEGVASCEACKAFFKRTIQGNIEYSCPATNECEITKRRRKSCQACRFMKCLKVGMLKEGVRLD [Y16E],-0.06 ± 0.055
14,KRLCLVCGDIASGYHGGVASCEACKAFFKRTIQGNIEYSCPATNECEITKRRRKSCQACRFMKCLKVGMLKEGVRLD [Y16G],-0.08 ± 0.045
15,KRLCLVCGDIASGYHHGVASCEACKAFFKRTIQGNIEYSCPATNECEITKRRRKSCQACRFMKCLKVGMLKEGVRLD [Y16H],-0.378 ± 0.14
16,KRLCLVCGDIASGYHIGVASCEACKAFFKRTIQGNIEYSCPATNECEITKRRRKSCQACRFMKCLKVGMLKEGVRLD [Y16I],-0.342 ± 0.087
17,KRLCLVCGDIASGYHKGVASCEACKAFFKRTIQGNIEYSCPATNECEITKRRRKSCQACRFMKCLKVGMLKEGVRLD [Y16K],-0.315 ± 0.084
18,KRLCLVCGDIASGYHLGVASCEACKAFFKRTIQGNIEYSCPATNECEITKRRRKSCQACRFMKCLKVGMLKEGVRLD [Y16L],-0.332 ± 0.046

row,Variant,abundance fitness
1,KRLCLVCGDIASGYHMGVASCEACKAFFKRTIQGNIEYSCPATNECEITKRRRKSCQACRFMKCLKVGMLKEGVRLD [Y16M],-0.239 ± 0.074
2,KRLCLVCGDIASGYHNGVASCEACKAFFKRTIQGNIEYSCPATNECEITKRRRKSCQACRFMKCLKVGMLKEGVRLD [Y16N],-0.093 ± 0.069
3,KRLCLVCGDIASGYHPGVASCEACKAFFKRTIQGNIEYSCPATNECEITKRRRKSCQACRFMKCLKVGMLKEGVRLD [Y16P],-0.355 ± 0.067
4,KRLCLVCGDIASGYHQGVASCEACKAFFKRTIQGNIEYSCPATNECEITKRRRKSCQACRFMKCLKVGMLKEGVRLD [Y16Q],-0.366 ± 0.078
5,KRLCLVCGDIASGYHSGVASCEACKAFFKRTIQGNIEYSCPATNECEITKRRRKSCQACRFMKCLKVGMLKEGVRLD [Y16S],-0.276 ± 0.05
6,KRLCLVCGDIASGYHTGVASCEACKAFFKRTIQGNIEYSCPATNECEITKRRRKSCQACRFMKCLKVGMLKEGVRLD [Y16T],-0.418 ± 0.059
7,KRLCLVCGDIASGYHVGVASCEACKAFFKRTIQGNIEYSCPATNECEITKRRRKSCQACRFMKCLKVGMLKEGVRLD [Y16V],-0.115 ± 0.041
8,KRLCLVCGDIASGYHWGVASCEACKAFFKRTIQGNIEYSCPATNECEITKRRRKSCQACRFMKCLKVGMLKEGVRLD [Y16W],-0.103 ± 0.074
9,KRLCLVCGDIASGYHYAVASCEACKAFFKRTIQGNIEYSCPATNECEITKRRRKSCQACRFMKCLKVGMLKEGVRLD [G17A],-0.075 ± 0.045
10,KRLCLVCGDIASGYHYDVASCEACKAFFKRTIQGNIEYSCPATNECEITKRRRKSCQACRFMKCLKVGMLKEGVRLD [G17D],-0.091 ± 0.11
11,KRLCLVCGDIASGYHYEVASCEACKAFFKRTIQGNIEYSCPATNECEITKRRRKSCQACRFMKCLKVGMLKEGVRLD [G17E],-0.027 ± 0.071
12,KRLCLVCGDIASGYHYFVASCEACKAFFKRTIQGNIEYSCPATNECEITKRRRKSCQACRFMKCLKVGMLKEGVRLD [G17F],-0.551 ± 0.26
13,KRLCLVCGDIASGYHYHVASCEACKAFFKRTIQGNIEYSCPATNECEITKRRRKSCQACRFMKCLKVGMLKEGVRLD [G17H],-0.356 ± 0.19
14,KRLCLVCGDIASGYHYKVASCEACKAFFKRTIQGNIEYSCPATNECEITKRRRKSCQACRFMKCLKVGMLKEGVRLD [G17K],-0.477 ± 0.092
15,KRLCLVCGDIASGYHYLVASCEACKAFFKRTIQGNIEYSCPATNECEITKRRRKSCQACRFMKCLKVGMLKEGVRLD [G17L],-0.601 ± 0.068
16,KRLCLVCGDIASGYHYPVASCEACKAFFKRTIQGNIEYSCPATNECEITKRRRKSCQACRFMKCLKVGMLKEGVRLD [G17P],-0.416 ± 0.093
17,KRLCLVCGDIASGYHYQVASCEACKAFFKRTIQGNIEYSCPATNECEITKRRRKSCQACRFMKCLKVGMLKEGVRLD [G17Q],-0.748 ± 0.11
18,KRLCLVCGDIASGYHYRVASCEACKAFFKRTIQGNIEYSCPATNECEITKRRRKSCQACRFMKCLKVGMLKEGVRLD [G17R],-0.495 ± 0.055
